One series has as its target T1, c-Met-Fc fusion protein (Homo sapiens, UniProt P08581).
T1 construct: recombinant EGFR and/or c-Met extracellular domain
Put plainly: c-Met-Fc affinity by surface plasmon resonance (Proteon). The series is classed as binding. Conditions: for binding to c-Met (in words): SPR, serine mutants in ECB15; for ka / kd / Kd: serine mutants of A3 in the context of ECB15; for Kd: read-out: KD. On the technique in general: SPR reads the build-up and loss of mass on a sensor chip optically.

Series [1] in a line: Differential scanning calorimetry in PBS (thermal stability). The series is classed as physicochemical. Conditions: DSC in PBS, c-Met-binding FN3 domains.

Substitutions are numbered along the chain they refer to. Names may count otherwise. Read-outs that look alike come from different tables or passages of the source.

24 molecules from patent US12304939B2, “EGFR and C-met fibronectin type III domain binding molecules” (Janssen Biotech, Inc., priority 2012, dated 2025) can be followed below.

T1 sequence (P08581 25-932 limits assumed): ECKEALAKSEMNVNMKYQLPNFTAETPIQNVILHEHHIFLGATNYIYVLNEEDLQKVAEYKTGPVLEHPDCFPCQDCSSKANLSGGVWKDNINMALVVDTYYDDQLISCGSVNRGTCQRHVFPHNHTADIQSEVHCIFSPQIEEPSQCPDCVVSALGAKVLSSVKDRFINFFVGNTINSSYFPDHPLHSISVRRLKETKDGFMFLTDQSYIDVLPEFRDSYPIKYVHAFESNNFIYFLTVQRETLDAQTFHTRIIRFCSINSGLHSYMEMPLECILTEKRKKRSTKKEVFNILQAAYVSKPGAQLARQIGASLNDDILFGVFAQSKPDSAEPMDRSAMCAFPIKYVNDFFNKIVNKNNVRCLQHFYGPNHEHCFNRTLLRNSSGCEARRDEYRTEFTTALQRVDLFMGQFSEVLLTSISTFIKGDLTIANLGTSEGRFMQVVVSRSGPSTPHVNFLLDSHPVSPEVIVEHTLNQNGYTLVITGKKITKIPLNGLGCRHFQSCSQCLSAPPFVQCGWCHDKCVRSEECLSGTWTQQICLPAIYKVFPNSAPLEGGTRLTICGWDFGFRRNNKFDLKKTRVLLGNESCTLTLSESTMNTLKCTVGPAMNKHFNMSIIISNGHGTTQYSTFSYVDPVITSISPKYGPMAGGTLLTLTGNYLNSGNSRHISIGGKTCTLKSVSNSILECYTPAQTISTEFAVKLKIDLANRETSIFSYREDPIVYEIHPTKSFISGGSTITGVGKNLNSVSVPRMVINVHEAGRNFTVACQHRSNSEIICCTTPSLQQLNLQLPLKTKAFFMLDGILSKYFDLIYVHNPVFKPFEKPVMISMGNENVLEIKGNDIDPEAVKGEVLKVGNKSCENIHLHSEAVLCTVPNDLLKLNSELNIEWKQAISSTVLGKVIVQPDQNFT

B1: A3 M72S: serine mutant of A3 c-Met domain in ECB15 context, SEQ ID NO: 220 (protein)
chain: LPAPKNLVVSRVTEDSARLSWTAPDAAFDSFWIRYFEFLGSGEAIVLTVPGSERSYDLTGLKPGTEYVVNISGVKGGKISPPLSAIFTT
modifications: c-Met binding FN3 domain
For B1, the “binding to c-Met (in words)” value in the series with c-Met-Fc fusion protein is “No binding was measurable”.

B2: A3 W32S: serine mutant of A3 c-Met domain in ECB15 context, SEQ ID NO: 219 (protein)
chain: B1 chain with W32S, S72M
modifications: c-Met binding FN3 domain
As to B2, in the series with c-Met-Fc fusion protein, the “Fold Change of KD compared to parent” value is reported as 74.5, the ka is 289000 M⁻¹ s⁻¹, the kd worked out at 0.0086 s⁻¹ and the dissociation constant (Kd) was found to be 29.8 nM.

B3: A3 F36S: serine mutant of A3 c-Met domain in ECB15 context, SEQ ID NO: 218 (protein)
chain: B1 chain with F36S, S72M
modifications: c-Met binding FN3 domain
In the case of B3, in the series with c-Met-Fc fusion protein, the “Fold Change of KD compared to parent” value turned out to be 68, the ka was 188000 M⁻¹ s⁻¹, the kd worked out at 0.00512 s⁻¹ and the Kd is 27.2 nM.

B4: P114AR7P93-G8: c-Met-binding FN3 domain, SEQ ID NO: 39 (protein)
chain: B1 chain with G60D, V68G, N70T, S72N, K78R, I79V, P81T
modifications: c-Met binding FN3 domain
Turning to B4, the “Thermal Stability (Tm)” value in series [1] is reported as 76.8 C.

B5: P114AR5P74-A5: c-Met-binding FN3 domain, SEQ ID NO: 32 (protein)
chain: B1 chain with F36D, F38V, L39V, G40V, S41G, V68Y, S72L, K78S, P81V
modifications: c-Met binding FN3 domain
For B5, the “Thermal Stability (Tm)” value in series [1] amounted to 74.1 C.

B6: A3 I79S: serine mutant of A3 c-Met domain in ECB15 context, SEQ ID NO: 223 (protein)
chain: B1 chain with S72M, I79S
modifications: c-Met binding FN3 domain
Regarding B6, the “binding to c-Met (in words)” value with c-Met-Fc fusion protein is given as “No binding was measurable”.

B7: A3 N70S: serine mutant of A3 c-Met domain in ECB15 context, SEQ ID NO: 216 (protein)
chain: B1 chain with N70S, S72M
modifications: c-Met binding FN3 domain
For B7, in the series with c-Met-Fc fusion protein, the “Fold Change of KD compared to parent” value was 14.75, the ka came out at 425000 M⁻¹ s⁻¹, the kd was determined as 0.00249 s⁻¹ and the Kd is 5.9 nM.

B8: P114AR7P92-H5: c-Met-binding FN3 domain, SEQ ID NO: 37 (protein)
chain: B1 chain with F36L, G40L, S41G, N70Q, S72M, K78T, I79V
modifications: c-Met binding FN3 domain
With B8, the “Thermal Stability (Tm)” value in series [1] was 87 C.

B9: P114AR7P95-H8: c-Met-binding FN3 domain, SEQ ID NO: 49 (protein)
chain: B1 chain with L39V, G40S, S41K, S72M, K78S
modifications: c-Met binding FN3 domain
On to B9, for which the “Thermal Stability (Tm)” value in series [1] was 83 C.

B10: P114AR7P92-G8: c-Met-binding FN3 domain, SEQ ID NO: 36 (protein)
chain: B1 chain with W32V, N70Q, S72L, K78Y, P81I
modifications: c-Met binding FN3 domain
For B10, the “Thermal Stability (Tm)” value in series [1] is on record as 90.9 C.

B11: P114AR7P95-D4: c-Met-binding FN3 domain, SEQ ID NO: 45 (protein)
chain: B1 chain with N70Q, S72L, K78Y, P81I
modifications: c-Met binding FN3 domain
In the case of B11, the “Thermal Stability (Tm)” value in series [1] stood at 85.3 C.

B12: P114AR7P92-F6: c-Met-binding FN3 domain, SEQ ID NO: 35 (protein)
chain: B1 chain with S72L, K78G, I79L, P81V
modifications: c-Met binding FN3 domain
Consider B12, for which, in series [1], the “Thermal Stability (Tm)” value is 76.8 C.

B13: P114AR7P94-E5: c-Met-binding FN3 domain, SEQ ID NO: 42 (protein)
chain: B1 chain with V68A, S72M, K78R, I79V, P81V
modifications: c-Met binding FN3 domain
Turning to B13, the “Thermal Stability (Tm)” value in series [1] is recorded as 80 C.

B14: P114AR7P93-H9: c-Met-binding FN3 domain, SEQ ID NO: 40 (protein)
chain: B1 chain with N70Q, S72I, K78H, P81L
modifications: c-Met binding FN3 domain
As to B14, in series [1], the “Thermal Stability (Tm)” value is on record as 88.2 C.

B15: A3 F38S: serine mutant of A3 c-Met domain in ECB15 context, SEQ ID NO: 222 (protein)
chain: B1 chain with F38S, S72M
modifications: c-Met binding FN3 domain
In the case of B15, in the series with c-Met-Fc fusion protein, the “Fold Change of KD compared to parent” value was 1792.5, the ka came to 45100 M⁻¹ s⁻¹, the kd worked out at 0.0323 s⁻¹ and the Kd came to 717 nM. In the series with c-Met-Fc fusion protein (listed as F38S), the “Fold Change of KD compared to parent” value was “greater than 100”.

B16: P114AR7P95-G7: c-Met-binding FN3 domain, SEQ ID NO: 48 (protein)
chain: B1 chain with F38L, G40S, S41T, S72M, K78S
modifications: c-Met binding FN3 domain
With B16, the “Thermal Stability (Tm)” value in series [1] was 87.2 C.

B17: A3 K78S: serine mutant of A3 c-Met domain in ECB15 context, SEQ ID NO: 212 (protein)
chain: B1 chain with S72M, K78S
modifications: c-Met binding FN3 domain
As to B17, in the series with c-Met-Fc fusion protein, the “Fold Change of KD compared to parent” value is 0.75, the ka was determined as 440000 M⁻¹ s⁻¹, the kd amounted to 0.00015 s⁻¹ and the Kd turned out to be 0.3 nM.

B18: A3 L39S: serine mutant of A3 c-Met domain in ECB15 context, SEQ ID NO: 214 (protein)
chain: B1 chain with L39S, S72M
modifications: c-Met binding FN3 domain
As to B18, in the series with c-Met-Fc fusion protein, the “Fold Change of KD compared to parent” value turned out to be 6.75, the ka was 475000 M⁻¹ s⁻¹, the kd was 0.00127 s⁻¹ and the Kd came to 2.7 nM.

B19: A3 G40S: serine mutant of A3 c-Met domain in ECB15 context, SEQ ID NO: 213 (protein)
chain: B1 chain with G40S, S72M
modifications: c-Met binding FN3 domain
For the molecule B19, in the series with c-Met-Fc fusion protein, the “Fold Change of KD compared to parent” value is given as 4.25, the ka was 185000 M⁻¹ s⁻¹, the kd was found to be 0.00032 s⁻¹ and the Kd worked out at 1.7 nM.

B20: P114AR7P94-A3: c-Met-binding FN3 domain, SEQ ID NO: 41 (protein)
chain: B1 chain with S72M
modifications: c-Met binding FN3 domain
As to B20, the “Thermal Stability (Tm)” value in series [1] was 86.2 C.

B21: A3 P81S: serine mutant of A3 c-Met domain in ECB15 context, SEQ ID NO: 217 (protein)
chain: B1 chain with S72M, P81S
modifications: c-Met binding FN3 domain
In the case of B21, in the series with c-Met-Fc fusion protein, the “Fold Change of KD compared to parent” value came to 4.25, the ka amounted to 321000 M⁻¹ s⁻¹, the kd worked out at 0.000536 s⁻¹ and the Kd was determined as 1.7 nM.

B22: P114AR7P95-F10: c-Met-binding FN3 domain, SEQ ID NO: 47 (protein)
chain: B1 chain with L39T, G40T, S41A, S72M, K78S
modifications: c-Met binding FN3 domain
B22: the “Thermal Stability (Tm)” value in series [1] is on record as 85.2 C.

B23: A3 V68S: serine mutant of A3 c-Met domain in ECB15 context, SEQ ID NO: 215 (protein)
chain: B1 chain with V68S, S72M
modifications: c-Met binding FN3 domain
As to B23, in the series with c-Met-Fc fusion protein, the “Fold Change of KD compared to parent” value is listed as 9, the ka came out at 329000 M⁻¹ s⁻¹, the kd came to 0.0012 s⁻¹ and the Kd was found to be 3.6 nM.

B24: A3 R34S: serine mutant of A3 c-Met domain in ECB15 context, SEQ ID NO: 221 (protein)
chain: B1 chain with R34S, S72M
modifications: c-Met binding FN3 domain
As to B24, the “binding to c-Met (in words)” value with c-Met-Fc fusion protein is reported as “No binding was measurable”.

As a reminder, the Kd is a measure of binding affinity in units of concentration.
